Source: patent publication US20160053277A1, “Compositions Having Dicamba Decarboxylase Activity and Methods of Use” (PIONEER HI-BRED INTERNATIONAL, INC., priority 2013, published 2016)

What was measured:
[1] = Saturation mutagenesis of SEQ ID NO:109: dicamba decarboxylation activity of point mutants (carbon dioxide released); settings: decarboxylation activity (carbon dioxide released) of point mutant compared with unmutated backbone protein; backbone SEQ ID NO: 109
[2] = 14C assay with IPTG-induced recombinant E. coli cells: 14CO2 captured from [14C]-carboxyl-labeled dicamba; settings: for decarboxylation activity of dicamba: among the 108 sequences tested, recombinant E. coli cells; for Enzymatic Detection level: dicamba decarboxylation activity of the protein of the given SEQ ID NO, High / Low / No; for Dicamba Decarboxylase Activity: induced recombinant E. coli cells, [14C]-carboxyl-labeled dicamba, 14CO2 capture

Molecule	Fold Activity [1]	decarboxylation activity of dicamba [2]	Enzymatic Detection level [2]	Dicamba Decarboxylase Activity [2]
4 (protein, listed as Lactobacillus buchneri) MAKVITLEEHFSSQKLGQKMAEVLPKRPIGNVSPKMQDYMQRSLPPEAELEDVTGSRIQWMDQHQISMQILSYGNQNPQNSDPKFAVELTKLANDELAKAVAKAPDRFRAFASLPVSHPTDAAAELKRGVEELGFKGAMLVRPTSQAHPFFDDPFYLPIFEAAANLNVPVYLHPSFPDSQIIDYYYSNGPWDDKVSGILGTAGYGWHTDVGIQTVRLLLSGVFEKYPNLKLISGHWGEFASFALERMDQVMYPETNLSEPISKIYRDHVYVTPSGILTEPQLKFVKDEVGIEHLLYSIDYPYIKPENSGSFIESSPLTDEEKELFAHGNAEKLLQL	1	showed decarboxylation activity of dicamba	High	High
92 (protein, listed as Chitinophaga pinensis) MARIVTLEEHVSFPEMTALLPEEILKNRKQSGAALQMQEKLADITGERLTSMKAAGISMQVLSVENTDVYLLPDSLAPAFAAKYNDLLADKISSHSDAFAAFAMLPMTVPEAAADELERAVKTHGFCGAMIKGLINGVFLDAPKFAPVFACAEKLGVPLYIHPGIPPKEVIDAYYSNVGDTKGPNEAIACYGWGWHSETAIHILRLLAAGIFDKYPQLNIIIGHMGEMLPMMWERSNRVFQPGNNGKNQRTLIETFRKQLYITTSGIFTQPPLQIAIDTIGIDNILFSIDYPFSSNQMGIDFLTKAALPAEQLAKMAHGNADRILKF	1.7	showed decarboxylation activity of dicamba	High	Yes
108 (protein, listed as Staphylococcus aureus) MAKSITFEEHYVIEDIQKETMNAISADPKGVPMKVMLEGLEKKTGFTNADELSHHDERIQFMNNQDVQIQVLSYGNGSPSNLVGQKAIELCQKANDQLANYIAQYPNRFVGFATLPINEPEAAAREFERCINDLGFKGALIMGRAQDGFLDQDKYDIIFKTAENLDVPIYLHPAPVNSDIYQSYYKGNYPEVTAATFACFGYGWHIDVGIHAIHLVLSGIFDRYPKLNMIIGHWGEFIPFFLERMDEALFAEHLNHSVSYYFKNSFYITPSGMLTKPQFDLVKKEVGIDRILYAADYPYIEPEKLGVFLDELGLTDEEKEKISYTNGAKLLGLSSNN	1.6	showed decarboxylation activity of dicamba	High	High
88 (protein, listed as Starkeya novella) MARKIALEEHFTTPELAGKYVARPTQSDALFADIERRLADFDELRLEMMDRAEIDLMVLSVTTPGVQGVRDTGEAIRLARGANDFLAREVQKRPSRYAGFAHLAMQDAEAAATELERAVRELGFRGALINGQTNGHYLDEDQYAPFWERVQELDVPVYLHPGNMADSPAMFAHRPELGGPIWAWTAETAAHALRLVFGGTFTRFPGAKVILGHMGETLPFLLWRLDSRREFDLGEKLAPDALPSAIIKRNIAVTTSGVCDPAPLVAALQALSDDNVMFSVDYPYEDPQLASKFIETAPIGEETRAKVCHGNAERLLGL	1.3	showed decarboxylation activity of dicamba	High	High
89 (protein, listed as Erwinia billingiae) MATNRRDFLKNATAVMAGSTVFAGSSHFASAAAVEPAAVQPPRRIIALEEHFMLPEFVGYLHETQQNLRNGLVDKVVTPLSDFGKGRLEIMDKNGVDFAVLSLSGPGVQAEPDRVKAVRLARYANDKLATEMQKNPRRYGGFAHLAMQDPLAAANELERCVKQLHMQGGMINGETDGLYLDDRRYDVFWERVEALNVPIYIHPGNPPDYPHMFAGHPEMWGPVWSWAVETCSHALRLIFSGTFDRYPGARVILGHMGETLPIQLWRLDSRYQIANQTFAIKHPPSWYAKKNITITTSGVCNDAALRCALDSMGSENVMFSIDYPFESTEIAVNWLKTANITEQERNAVAWGNATSILRLGA	3.1	showed decarboxylation activity of dicamba	High	High
